Experimental data reported in the DeepSol protein solubility set.

assay: soluble on expression in E. coli; label from the status in PepcDB or PDB records

Sequence	soluble on expression in E. coli
MGSDKIHHHHHHMITTARPNVLWIMADQLRFDYLSCYGHPHLHTPHIDALAARGVRFTNAYVQSPVCGPSRMSAYTGRYVRSHGSTWNGMPLRVGEPTLGDHLREAGARAVLVGKTHMVADAEGMAWLGIDPKSEIGVSRSECGFEPFERDDGLHPDSPRQRWSAYDDYLVSHGYDSQNPWEDFANSGVDADGELLSAWLLKNSRLAANVPEEHSETAYMTDRAMAFMEEAEADGRPWMCHLSYIKPHWPYIVPAPYHDMYDESHIIDPVRSEAERDNAHPLVGAYQNSRVCRTFSRDQVRDHVIPAYMGLIKQLDDNLGRLFAWMDARGLSENTIIAFTSDHGDYMGDHWMGEKDFYHEMAVKVPMIIADPRPQADGTRGHVADDLVEMIDLAPTFMTALGAAPKPHIIEGRDLTPLLHGTDGFARQYVISEYDYHWSEMAAALQVPQEDAHTTMIFDGRWKYIRCERFDPVLFDLETDPQELVDLGTSPAHAEIRALMDAALLKWATQHHTRITATAAVLAGQKIAAETGILIGFWDEAEFEAATGFPFTDLTPQGPPK	not soluble
MGSDKIHHHHHHMIYIDKNESPVTPLDEKTMTSIISATPYNLYPDAAYEQFKEAYAKFYGLSPEQIIAGNGSDELIQKLMLIMPEGPALTLNPDFFMYQAYAAQVNREIAFVDAGSDLTFDLETILTKIDEVQPSFFIMSNPHNPSGKQFDTAFLTAIADKMKALNGYFVIDEAYLDYGTAYDVELAPHILRMRTLSKAFGIAGLRLGVLISTAGTIKHIQKIEHPYPLNVFTLNIATYIFRHREETRVFLTMQRQLAEQLKQIFDTHVADKMSVFPSNANFVLTKGSAAHQLGQYVYEQGFKPRFYDEPVMKGYVRYSIATASQLKQLEEIVKEWSAKYDLSKTTKHS	not soluble
MGSDKIHHHHHHMIYSVDKKDIEIGISACLIGEKVRFDASNKPSHFCIKEFSEHVSYKSFCPEVAVGLPIPRPTIRQIKRDDVIHVSQKDGSGDVTEALKAYGKKVASMTKSLSGYIFCAKSPSCGMERVKIYSPEGNSLPSKGIGAFAKEIMDANPLLPCEENGRLNDPLLRENFVARVFAYKHWQTIVESGLTKHKLTTFHSHYKYTVMSHDLIAYKELGQLLARADLPLDEVAAQYILGLMTALKIIATRKKHANTLAHIQGYFSKHLQANERQELCEQIDAYREGLIPLMAPLTLIKHYLLNHPKDYLTKQAYLSPYPDKLRLRYAY	not soluble
MGSDKIHHHHHHMKASVIIPAYNSKERLYNSLLSLNQQECDEEFEVIVADNGSEDGTLSMLESFQADFPLIFTRIKENRGIAYGRNQALRNARGDILIFHDSDMLAAKDLVAKHIKAHENEENLVVCGLFWKRIYSFYYERFEEEHKEQLAKLTGEMPKKDKQKLLEEADIKNGSFLDKSFDLDTDFIDVLKKILDEYGDDLKGYHMPWRFFITNNSSVKRKHVVDLGLFDEGIVRYGFEDYDLGIRLHQAGLTFRLRRDIVSVHQEHPSNCKSVDDIRANIAYMCDKYNNIRSLDVHLAFNGPFPPDMTNRIMADIQKLLESQKYDMLLNLFLELLHVVKERNIDPDWRKKSPRVTAKSFDLQTVRKLLPKAKKKLGVNDFANALYALVNDLLHVDLRSLDVV	not soluble
MGSDKIHHHHHHMKAVRVHILGSGGREHAIGWAFAKQGYEVHFYPGNAGTKRDGTNHPYEGEKTLKAIPEEDIVIPGSEEFLVEGVSNWRSNVFGPVKEVARLEGSKVYAKRFMKKYGIRTARFEVAETPEELREKIKKFSPPYVIKADGLARGKGVLILDSKEETIEKGSKLIIGELIKGVKGPVVIDEFLAGNELSAMAVVNGRNFVILPFVRDYKRLMDGDRGPNTGGMGSWGPVEIPSDTIKKIEELFDKTLWGVEKEGYAYRGFLYLGLMLHDGDPYILEYNVRLGDPETEVIVTLNPEGFVNAVLEGYRGGKMEPVEPRGFAVDVVLAARGYPDAPEKGKEITLPEEGLIFFAGVAEKDGKLVTNGGRVLHCMGTGETKEEARRKAYELAEKVHFEGKTYRRDIAL	soluble
MGSDKIHHHHHHMKDYTYSVTEINEYIKDLIEGDPYLTNVSVYGEISGVRPRKGHIFFSLVEENARLECVIFGGDNMGIRLQEGRMALVEGSVSVYIPHGTYRFICSNVRYLDQAGMYQIKFETTLKKLLEEGLLSRPKKTVPRFPRKIGIITSRDSAALQDVIRTARERKAPIEIYVFHTSVQGDSAREELIKALRKANEYDLDLVMIVRGGGSKEDLWVFNEEDVIREILRLRHPVVTGIGHEIDRVIADFVADVSMHTPTGAAEYVIPDASEIHEDLDSFFEKLITSLSNRFDMEERRLETLYFRLRMIGRRKLELNEFKIERVKELAAKLRKKLMDYFEHNQKKLDSLGRMLESLNPLRPLERGFVLVKKDEKIVKESTDLKRGDVVSLVFKDGTKKAQVIG	not soluble
MGSDKIHHHHHHMKEHEVVGIDRTPCSTADVVGDIRDTALLAEALEGVEVIIHTAALHAPHVGLVPGDEFEEINIKATEQLALMGVKKGIKHFVFTSTTALYGFASTPAGRAGWVDETVMPRPKTIYHHSKIKAEQLLENISSSFDLPVTVLQMSRCFPEPVNLMAVYRLTRGIDARDVARAHACAVERRLSGFRRYIISGKTPFSKACCERLYRDANDVIREAIPGLAESFAVRGWSMPQSLDRVYDSSLAQHELGWQPKYGYESVLSLLDNESAEVLPMKSQS	not soluble
MGSDKIHHHHHHMKEKLRLYHTNDLHSHFENWPKIVDYIEQKRKEHQSDGEETLVFDIGDHLDRFQFVTEATFGKANVDLLNRLHIDGAAIGNNEGITLPHEELAALYDHAEFPVIVSNLFDKNGNRPSWAVPYHIKSLKNGMSIAFLGVTVPYYPVYDKLGWTVTDALESIKETILEVKGQADIIVLLSHLGILDDQAVAEAVPEIDVILESHTHHLLEDGQVVNGVLLASAEKYGHYVGCVEITVDSVQRSINSKTASVQNMAEWTGESAETKAFLNEKEREAEEKLSDAVAELAQDAEVKWFEESELPLLLAYALKEWCETDISMVNSGVILGPLKAGPVTKLDLHRICPHPINPVAVRLTGEELKETIVHAASEQMEQLRIKGLGFRGEVMGKMVYAGVEVETKRLDDGITHVTRITLNGEDIEKHKQYSVAVLDMFTLGKLFPLIRDAAEKEYFMPEFLRDLLAWKLAQ	not soluble
MGSDKIHHHHHHMKEKVVLAYSGGLDTSVILKWLCEKGFDVIAYVANVGQKDDFVAIKEKALKTGASKVYVEDLRREFVTDYIFTALLGNAMYEGRYLLGTAIARPLIAKRQVEIAEKEGAQYVAHGATGKGNDQVRFELTYAALNPNLKVISPWKDPEFLAKFKGRTDLINYAMEKGIPIKVSKKRPYSEDENLMHISHEAGKLEDPAHIPDEDVFTWTVSPKDAPDEETLLEIHFENGIPVKVVNLKDGTEKTDPLELFEYLNEVGAKNGVGRLDMVENRFIGIKSRGVYETPGATILWIAHRDLEGITMDKEVMHLRDMLAPKFAELIYNGFWFSPEMEFLLAAFRKAQENVTGKVTVSIYKGNVMPVARYSPYSLYNPELSSMDVEGGFDATDSKGFINIHALRLKVHQLVKKGYQR	soluble
MGSDKIHHHHHHMKERILQEIKTRVNRKSWELWFSSFDVKSIEGNKVVFSVGNLFIKEWLEKKYYSVLSKAVKVVLGNDATFEITYEAFEPHSSYSEPLVKKRAVLLTPLNPDYTFENFVVGPGNSFAYHAALEVAKHPGRYNPLFIYGGVGLGKTHLLQSIGNYVVQNEPDLRVMYITSEKFLNDLVDSMKEGKLNEFREKYRKKVDILLIDDVQFLIGKTGVQTELFHTFNELHDSGKQIVICSDREPQKLSEFQDRLVSRFQMGLVAKLEPPDEETRKSIARKMLEIEHGELPEEVLNFVAENVDDNLRRLRGAIIKLLVYKETTGKEVDLKEAILLLKDFIKPNRVKAMDPIDELIEIVAKVTGVPREEILSNSRNVKALTARRIGMYVAKNYLKSSLRTIAEKFNRSHPVVVDSVKKVKDSLLKGNKQLKALIDEVIGEISRRALSG	not soluble
MGSDKIHHHHHHMKETEARAAEALRRLLENIPILHVEGIDAEAVSGDWVPDLIARLVVDGKRHLLICEYKSSGQPRFARSALLELRNYVAQRAPEATPVFIAPYISPVVRKMCEEKGVGYLDLEGNARIAFGGVFIERMVTDKPVVEQRELRSLFRPKSAQVLRAMLRDPGRAWRVTELSEISGVSLGHVSNVRTGLIDREWARASDDGLILSEPDALLDAWRDSYAAPAGERSSFYTPLHGSALEDAARSVLRVEDTRGRAAFASFSAAQWLAPYGRTGTHYFFADEDGLRKLQAALKLAPALKGENVIVTVPKDLGLLADTVEPAPGAICTSPVQTYLDLSIAGERGAEAADHLRQERLSWPR	not soluble
MGSDKIHHHHHHMKEVFDLRGRVALVTGGSRGLGFGIAQGLAEAGCSVVVASRNLEEASEAAQKLTEKYGVETMAFRCDVSNYEEVKKLLEAVKEKFGKLDTVVNAAGINRRHPAEEFPLDEFRQVIEVNLFGTYYVCREAFSLLRESDNPSIINIGSLTVEEVTMPNISAYAASKGGVASLTKALAKEWGRYGIRVNVIAPGWYRTKMTEAVFSDPEKLDYMLKRIPLGRTGVPEDLKGVAVFLASEEAKYVTGQIIFVDGGWTAN	soluble
MGSDKIHHHHHHMKGKHKIVVKNNRLHYEFEIKRNITIIKGDSATGKTTLINMIRQFANLGNASGIEIECDAPCTVLEGNLWQMLLKNLSGNIIFIDEENQFIRQQEFAELVKASDNYFVIITRENLYNLPYSVEEIYGLYSSGKYQNTKQIYQEMYHIYPLNQDLSCKPDKIIVEDTNSGYEYFKAISKEKNIVCESAGGKTKIFAMLEQLKAETESICVIADGAAIGPEMDALYKMSVEKGNIKLYLPESFEWIILSSELLEDKEIKDIIDKPENYIESQEYFSWERFFTKLLVDKTAGTYLKYQKGKLNPTYLHEKNKNIILKNIKNSIDF	not soluble
MGSDKIHHHHHHMKHGGFSAASEAENISKSKLSRRIIDLENKFNVSLIQRTTRHFKVTDLGQEFYEECCKVIAQVECAENVLLKQKSEPQGLVKVSCPPLMMHFQIRKILNQFLKTYPKVEISLELTSRRVDILHDDIDLAIRTNFEPNEDSNLIVRDVIKTDHCLVASPELLQGRTIKHYSELQDFPSISLGTQKQNYIWHLCNIRNGESVDVPYQPRIKSNDLAGVYYAVMDGLGIADLPFLTVESEIRKGTLVHILPDWKSNIGMLQLVYVSRKGQRLVVEKLIETLIDELRRLPESHEGYLPT	not soluble
MGSDKIHHHHHHMKHIEDNAGSERKPLAGAAKSVPAVAADKPYHRKNLREDLLRSALELTVERDGPAFSLRELAMREKVSHTAVYRHFSDKASLFAELSSEGFRQLALYQNRTIEAPDLPPLARLEQMGATYVRFAMENVGFFRVMFDVNLAGEWEEARKGERTAFGNLVGLVRQCQSEGDIIDADPRAIATYLVLSPHGLAHFNNIGHLTHLLQTSMTLDQLATQVFRLTLAPFLTKPYSEQDVRALVNSIF	not soluble
MGSDKIHHHHHHMKIDFHTHIYPDHVAVRTIAAVRQRAGIEAHTDGTLKGLKRSMTAAGIDISVVAAVATRPEQVSSIHCWLGGIRQPGIETMATTHPSNPLKSEQIKSLKRRGFKGFKLHPDYQHFFVDDFRMYPFYEAAAAEGMFILFHAGMDRGLPYPVHATPKRLAAVHEAVPRLCMIAAHLGGEEAYEETVAHLLGKDLYLDTSFVLRKMPRLFLERIFREHPPDKLLFASDSPWTDQREELNFLLQLPFLSVQDQEKICFSNAARLLGREA	not soluble
MGSDKIHHHHHHMKIFLDTANLEEIKKGVEWGIVDGVTTNPTLISKEGAEFKQRVKEICDLVKGPVSAEVVSLDYEGMVREARELAQISEYVVIKIPMTPDGIKAVKTLSAEGIKTNVTLVFSPAQAILAAKAGATYVSPFVGRMDDLSNDGMRMLGEIVEIYNNYGFETEIIAASIRHPMHVVEAALMGVDIVTMPFAVLEKLFKHPMTDLGIERFMEDWKKYLENLKK	soluble
